Test results reported in patent US20180305450A1 (AstraZeneca / MedImmune, published 2018).
Positions count from the first letter of the chain named. Names and notes keep the numbering of the source.

Columns and labels:
[1] = target: T1, recombinant biotinylated human PAR2 extracellular domain (residues 1-75), N-terminal AviTag, C-terminal Flag … (human, UniProt P55085 26-75, biotin on the AviTag (enzymatic biotinylation)); test: HTRF competition with Dylight650-Par0067 IgG, IgG
T1 construct: also called Bio-human-PAR2 ECD; human PAR2 ECD; not shown: N-terminal AviTag (Avidity LLC); C-terminal Flag and poly Histidine tags
Description: (§1) Parent Par0067 IgG (used as a reference/control in all assays) was pre-diluted to give a 2000 nM stock in each of the two different pH assay buffers (in order to give a top final assay IgG concentration of 500 nM). All test, or other reference/control IgG were tested from a top final assay concentration of ¼ of the neat undiluted sample (i.e. no pre-dilution step was performed). Duplicate 11 point 1:3 serial dilutions then were prepared on 384 well polypropylene Greiner plates in each of the two assay buffers (pH 7.4 & 6.0). 5 μl per well was transferred from the relevant pH IgG dilution plate to the corresponding assay plate (pH 7.4 and pH 6.0). 5 ul of the appropriate pH assay buffer was added to the total and non-specific wells.
(§2) For multipoint dose response curves % Specific Binding values were plotted versus test purified antibody concentration (scFv or IgG). IC₅₀ values were determined via a sigmoidal dose response inhibition variable slope curve fit (4 parameter logistic equation) using Graphpad Prism Software.

[2] = target: T1, recombinant biotinylated human PAR2 …; test: HTRF competition with Dylight650-Par0067 IgG, pH 6.0, IgG
Description: as §1, §2

[3] = target: T1, recombinant biotinylated human PAR2 …; test: HTRF competition with Dylight650-Par0067 IgG, pH 7.4, IgG
Description: as §1, §2

[4] = target: T1, recombinant biotinylated human PAR2 …; test: Biacore SPR 25 C, pH 7.4
Description: (§3) The experiments were carried out using recombinant human, rat and cynomolgus PAR2 with an N-terminal Avi tag and C-terminal Flag-His tags.
(§4) Streptavidin was covalently immobilised to a C1 chip surface using standard amine coupling techniques at a concentration of 4 μg/ml in 10 mM Sodium acetate pH 4.5. A final streptavidin surface of approximately 30-100 RUs was achieved. Recombinant biotinylated PAR2 species (produced in-house) were titrated onto the streptavidin chip surface at 4 μg/ml in HBS-EP+ buffer to enable Fab binding at saturation (Rₘₐₓ). This low level of analyte binding ensured minimal mass transport effects.
(§5) The anti-PAR2 Fabs were serially diluted (0.39 nM-25 nM) in HBS-EP+ buffer pH 7.4 or MES-BS-EP+ pH 6.0 buffer or in MES-BS-EP+ pH 5.6 buffer and flowed over the chip at 50 μl/min, with 3 minutes association and up to 30 minutes dissociation. Multiple buffer-only injections were made under the same conditions to allow for double reference subtraction of the final sensorgram sets, which were analysed using the BiaEval software (version 2.0.1). The chip surface was fully regenerated with pulses of 4 M MgCl₂.

[5] = target: T2, recombinant biotinylated rat PAR2 extracellular residues 1-75, N-terminal AviTag, C-terminal Flag and poly … (rat, UniProt Q63645 26-75, not fully specified; biotin on the AviTag (enzymatic biotinylation)); test: Biacore SPR 25 C, pH 7.4
T2 construct: range 1-75; not shown: N-terminal AviTag (Avidity LLC); C-terminal Flag and poly Histidine tags
T2 chain (looked up): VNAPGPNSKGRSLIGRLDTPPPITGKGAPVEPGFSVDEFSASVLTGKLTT
Description: as §3, §4, §5

[6] = target: T1, recombinant biotinylated human PAR2 …; test: Biacore SPR 25 C, pH 6.0
Description: as §3, §4, §5

[7] = target: T2, recombinant biotinylated rat PAR2 …; test: Biacore SPR 25 C, pH 6.0
Description: as §3, §4, §5

T1 sequence (P55085 26-75): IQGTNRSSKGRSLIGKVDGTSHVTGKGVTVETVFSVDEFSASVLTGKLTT

B1: Par0067 IgG (antibody, V domains shown)
VH: EVQLLESGGGLVQPGGSLRLSCAASGFTFSSYAMNWVRQAPGKGLEWVSTISYSGSLISYADSVKGRFTISRDNSKNTLYLQMNSLRAEDTAVYYCARINNDPMDVWGQGTLVTVSS
VL: SIELTQPPSVSVSPGQTASITCSGDNLGKKYVQWYQQKPGQSPVLVIYDDSNRPSGIPERFSGSNSGNTATLTISGTQAMDEADYYCQTWDGNPTTGETNVFGGGTKLTVL
notes: IgG1-TM (L234F, L235E, P331S), human lambda light chain; also called ZZ15D2-D02; parent Par0067 IgG
Fold IC50 (pH 6.0 v pH 7.4) [1]: 0.95 fold
Fold IC50 pH 7.4 (Variant v Par0067) [1]: 1 fold
IC50 [2]: 0.79 nM
IC50 [3]: 0.835 nM

B2: Par0067 Fab (Fab, V domains shown)
VH: B1 VH
VL: B1 VL
notes: Fab; also called ZZ15D2-D02
Kd [4]: 0.0075 nM
koff [4]: 4.96e-05 s⁻¹
kon [4]: 6.66e+06 M⁻¹ s⁻¹
Kd [5]: 0.0376 nM
koff [5]: 0.000194 s⁻¹
kon [5]: 5.16e+06 M⁻¹ s⁻¹
Kd [6]: 0.0312 nM
koff [6]: 9.72e-05 s⁻¹
kon [6]: 3.12e+06 M⁻¹ s⁻¹
Kd [7]: 0.17 nM
koff [7]: 0.000544 s⁻¹
kon [7]: 3.21e+06 M⁻¹ s⁻¹

B3: PaB670149 IgG (antibody, V domains shown)
VH: B1 VH with S54H, S56H, L57H, V64H, K65H, G66H, N101H
VL: B1 VL with Q88H, D91H, G92H, N93H, T96H, T99H
notes: IgG1-TM (L234F, L235E, P331S), human lambda light chain
Fold IC50 pH 7.4 (Variant v Par0067) [1]: 605 fold
IC50 [3]: 505 nM

B4: PaB670076 Fab (Fab, V domains shown)
VH: B1 VH
VL: B1 VL with Q88H, G92H, N93H, P94H, T99H
notes: Fab; also called ZZ1NHH-F09
Kd [4]: 0.207 nM
koff [4]: 0.00121 s⁻¹
kon [4]: 5.84e+06 M⁻¹ s⁻¹
Kd [5]: 1.69 nM
koff [5]: 0.0107 s⁻¹
kon [5]: 6.34e+06 M⁻¹ s⁻¹
Kd [6]: 4.61 nM
koff [6]: 0.00514 s⁻¹
kon [6]: 1.11e+06 M⁻¹ s⁻¹
Kd [7]: 30.7 nM
koff [7]: 0.051 s⁻¹
kon [7]: 1.66e+06 M⁻¹ s⁻¹

B5: PaB670146 IgG (antibody, V domains shown)
VH: B1 VH with N101H
VL: B1 VL with Q88H, D91H, G92H, N93H, T96H, T99H
notes: as for B3
Fold IC50 (pH 6.0 v pH 7.4) [1]: 8.5 fold
Fold IC50 pH 7.4 (Variant v Par0067) [1]: 110 fold
IC50 [2]: 784 nM
IC50 [3]: 91.9 nM

B6: PaB670128 Fab (Fab, V domains shown)
VH: B1 VH with S54H, S56H, L57H, V64H, K65H, G66H, N100H, N101H
VL: B1 VL
notes: Fab; also called ZZ1RUE-A01
Kd [4]: 0.613 nM
koff [4]: 0.00365 s⁻¹
kon [4]: 5.95e+06 M⁻¹ s⁻¹
Kd [5]: 3.02 nM
koff [5]: 0.0196 s⁻¹
kon [5]: 6.49e+06 M⁻¹ s⁻¹
Kd [6]: 20.1 nM
koff [6]: 0.0457 s⁻¹
kon [6]: 2.22e+06 M⁻¹ s⁻¹
Kd [7]: 38.5 nM
koff [7]: 0.0689 s⁻¹
kon [7]: 1.79e+06 M⁻¹ s⁻¹

B7: PaB670163 IgG (antibody, V domains shown)
VH: B1 VH with S54H, S56H, L57H, V64H, K65H, G66H, N101H
VL: B1 VL with Q88H, N93H, P94H, V101H
notes: as for B3
Fold IC50 pH 7.4 (Variant v Par0067) [1]: 174 fold
IC50 [3]: 145 nM

B8: PaB670045 IgG (antibody, V domains shown)
VH: B1 VH with N100H, N101H
VL: B1 VL
notes: IgG1-TM (L234F, L235E, P331S), human lambda light chain; also called ZZ1KX3-F01
Fold IC50 (pH 6.0 v pH 7.4) [1]: 8.9 fold
Fold IC50 pH 7.4 (Variant v Par0067) [1]: 3.5 fold
IC50 [2]: 25.8 nM
IC50 [3]: 2.9 nM

B9: PaB670084 Fab (Fab, V domains shown)
VH: B1 VH with Y53H, S56H, S59H, Y60H, V64H
VL: B1 VL
notes: Fab; also called ZZ1PXA-A05
Kd [4]: 0.25 nM
koff [4]: 0.00162 s⁻¹
kon [4]: 6.49e+06 M⁻¹ s⁻¹
Kd [5]: 1.23 nM
koff [5]: 0.00837 s⁻¹
kon [5]: 6.83e+06 M⁻¹ s⁻¹
Kd [6]: 4.41 nM
koff [6]: 0.00763 s⁻¹
kon [6]: 1.73e+06 M⁻¹ s⁻¹
Kd [7]: 10.8 nM
koff [7]: 0.0277 s⁻¹
kon [7]: 2.57e+06 M⁻¹ s⁻¹

B10: PaB670151 IgG (antibody, V domains shown)
VH: B1 VH with N101H
VL: B1 VL with Q88H, G92H, N93H, P94H, T99H
notes: as for B3
Fold IC50 (pH 6.0 v pH 7.4) [1]: 11.5 fold
Fold IC50 pH 7.4 (Variant v Par0067) [1]: 83.2 fold
IC50 [2]: 796 nM
IC50 [3]: 69.5 nM

B11: PaB670144 IgG (antibody, V domains shown)
VH: B1 VH with S54H, S56H, L57H, V64H, K65H, G66H, N101H
VL: B1 VL with T96H
notes: as for B3
Fold IC50 (pH 6.0 v pH 7.4) [1]: 19.5 fold
Fold IC50 pH 7.4 (Variant v Par0067) [1]: 34.7 fold
IC50 [2]: 565 nM
IC50 [3]: 29 nM

B12: PaB670142 IgG (antibody, V domains shown)
VH: B1 VH with N100H, N101H
VL: B1 VL with T96H
notes: as for B3
Fold IC50 (pH 6.0 v pH 7.4) [1]: 14 fold
Fold IC50 pH 7.4 (Variant v Par0067) [1]: 5.7 fold
IC50 [2]: 67.1 nM
IC50 [3]: 4.8 nM

B13: PaB670120 Fab (Fab, V domains shown)
VH: B1 VH with S54H, S56H, L57H, V64H, K65H, G66H, N101H
VL: B1 VL
notes: Fab; also called ZZ1RUC-C11
Kd [4]: 0.247 nM
koff [4]: 0.00137 s⁻¹
kon [4]: 5.54e+06 M⁻¹ s⁻¹
Kd [5]: 2.61 nM
koff [5]: 0.0146 s⁻¹
kon [5]: 5.62e+06 M⁻¹ s⁻¹
Kd [6]: 6.05 nM
koff [6]: 0.021 s⁻¹
kon [6]: 3.48e+06 M⁻¹ s⁻¹
Kd [7]: 34 nM
koff [7]: 0.281 s⁻¹
kon [7]: 8.26e+06 M⁻¹ s⁻¹

B14: PaB670152 IgG (antibody, V domains shown)
VH: B1 VH with N100H, N101H
VL: B1 VL with Q88H, G92H, N93H, P94H, T99H
notes: as for B3
Fold IC50 (pH 6.0 v pH 7.4) [1]: 15.1 fold
Fold IC50 pH 7.4 (Variant v Par0067) [1]: 526 fold
IC50 [2]: 6600 nM
IC50 [3]: 439 nM

B15: PaB670084 IgG (antibody, V domains shown)
VH: B1 VH with Y53H, S56H, S59H, Y60H, V64H
VL: B1 VL
notes: IgG1-TM (L234F, L235E, P331S), human lambda light chain; also called ZZ1PXA-A05
Fold IC50 (pH 6.0 v pH 7.4) [1]: 6.3 fold
Fold IC50 pH 7.4 (Variant v Par0067) [1]: 12.3 fold
IC50 [2]: 64.6 nM
IC50 [3]: 10.3 nM

B16: PaB670141 IgG (antibody, V domains shown)
VH: B1 VH with N101H
VL: B1 VL with T96H
notes: as for B3
Fold IC50 (pH 6.0 v pH 7.4) [1]: 5.9 fold
Fold IC50 pH 7.4 (Variant v Par0067) [1]: 2.8 fold
IC50 [2]: 13.9 nM
IC50 [3]: 2.4 nM

B17: PaB670159 IgG (antibody, V domains shown)
VH: B1 VH with S54H, S56H, L57H, V64H, K65H, G66H, N101H
VL: B1 VL with N93H, P94H, T95H, V101H
notes: as for B3
Fold IC50 pH 7.4 (Variant v Par0067) [1]: 193 fold
IC50 [3]: 161 nM

B18: PaB670128 IgG (antibody, V domains shown)
VH: B1 VH with S54H, S56H, L57H, V64H, K65H, G66H, N100H, N101H
VL: B1 VL
notes: IgG1-TM (L234F, L235E, P331S), human lambda light chain; also called ZZ1RUE-A01
Fold IC50 pH 7.4 (Variant v Par0067) [1]: 39.3 fold
IC50 [3]: 32.8 nM

B19: PaB670148 IgG (antibody, V domains shown)
VH: B1 VH with S54H, S56H, L57H, V64H, K65H, G66H
VL: B1 VL with Q88H, D91H, G92H, N93H, T96H, T99H
notes: as for B3
Fold IC50 (pH 6.0 v pH 7.4) [1]: 17.4 fold
Fold IC50 pH 7.4 (Variant v Par0067) [1]: 58.1 fold
IC50 [2]: 845 nM
IC50 [3]: 48.5 nM

B20: PaB670048 IgG (antibody, V domains shown)
VH: B1 VH with N100H, N101H, V106H
VL: B1 VL
notes: IgG1-TM (L234F, L235E, P331S), human lambda light chain; also called ZZ1KX4-E11
Fold IC50 (pH 6.0 v pH 7.4) [1]: 8.5 fold
Fold IC50 pH 7.4 (Variant v Par0067) [1]: 6.8 fold
IC50 [2]: 48.2 nM
IC50 [3]: 5.7 nM

B21: PaB670143 IgG (antibody, V domains shown)
VH: B1 VH with S54H, S56H, L57H, V64H, K65H, G66H
VL: B1 VL with T96H
notes: as for B3
Fold IC50 (pH 6.0 v pH 7.4) [1]: 11.8 fold
Fold IC50 pH 7.4 (Variant v Par0067) [1]: 4 fold
IC50 [2]: 40 nM
IC50 [3]: 3.4 nM
